Source: the DeepSol protein solubility set

Assay: soluble on expression in E. coli; label from the status in PepcDB or PDB records

Sequence | soluble on expression in E. coli
MEGRIPPHSLEAEQSVLGAILLDYQVLDEIEGLLPTPEAFYAEAHRKIYAAMQGLRAEGSPVDLVTLAEELSRRGELDGVGGISYLMQLSEATPTAAYAEHYARIVAEKWTLRRLIQAAGEAMRLAYEEAGSLDEILDQAGKRILEVALAQTEVEARSMRELVHETFEHIEALFQNKGETAGVRTGFKELDQLIGTLAPGSLNIIAARPAMGKTAFALTIAQHAALKEGVGVGIYSLEMPAAQLVLRMMCSEARIDMNRVRLGQLSDRDFSRLVDVAGRLSEAPIFIDDTPDLTLMELRARARRLRSQHNVGLIIIDYLQLMSGPGGGQKGENRQQEIAAISRGLKALARELGVPVIALSQLSRAVEARPNKRPMLSDLRESGSIEQDADLVMFIYRDEYYNPHSEKAGIAEIIVGKQRNGPTGTVELQFHAQHVRFNDLAKEP | soluble
MFALPQAGDRRGEIIKVLLSNGWDYMNGLLTLGKVGEPQIPTPEVLTKILVELGPFYIKLGQLLSTRPDLLPPRYINALTALQSNVPPLPWSAIEDLLQREFPQPLGETFQEIESEPIAALEHHHHHH | not soluble
GGSEDEDSPLDALDLVWAKCRGYPSYPALIIDPKMPREGMFHHGVPIPVPPLEVLKLGEQMTQEAREHLYLVLFFDNKRTWQWLPRTKLVPLGVNQDLDKEKMLEGRKSNIRKSVQIAYHRALQHRSKVQGE | soluble
MFILSKIADLVRIPPDQFHRDTISAITHQLNNKFANKIIPNVGLCITIYDLLTVEEGQLKPGDGSSYINVTFRAVVFKPFLGEIVTGWISKCTAEGIKVSLLGIFDDIFIPQNMLFEGCYYTPEESAWIWPMDEETKLYFDVNEKIRFRIEREVFVDVKPKSPKERELEERAQLENEIEGKNEETPQNEKPPAYALLGSCQTDGMGLVSWWEHHHHHH | soluble
MTMSTILFDDIRPYCDQEAPAVIERLLSSAEYRYVFGKMMPDVKPQEFEQMMLRCKSTGEFKHIFGYTAVKAVSEKTTFSLSLSGRSRIPDNGAYIFISNHRDIVLDSAFLNLLLAEIDYNMPQIAIGDNLLVKPWIEDFVRLNGSFIVRRGINMRELIAQSQRLSAYIRHTITQTKDSIWIAQREGRAKDADDRTQSSVLKMLAMSGEDGGIKSLLNLNIVPLSLSYEYDPCDYLKAREMLSKQRDPLYKKPVGEDLLNMQTGIFGYKGRVHFAIGTPLRELAESIPADAPHARQFTEAGKLIDAEIHRRYRLYPGNYVAWDLLDGCDHAGSHYSKEEKETFVNYLSAQIAKVEMQDKDEEELKRLILIMYANPARAYYAAQDPTNV | not soluble
MGSDKIHHHHHHMTLPIDTPAVLVDLNVAEANVRAFQSYCDRHSLKMRPHIKTHKLPQLAEYQIAQGAIGITCQKITEAEAMVAGGDMRDILITYNILGAEKVARLRALSERVALSVVADNLTVVEGLSAGFAGANKPLPVLVECNTGADRCGVETPEAALALAQAIDAAPGLKFAGLMTYPPVGGAAKVTTWLAEAKARIEATDLTVEVISSGGSPDMWQAHEMPLATEYRVGTYVYNDRSLVTRGICTWDDCALTVLATVVSTPSATRAVIDAGSKVLTSDLLGLEGYGHVLGYPDFMIDQLSEEHGRITSAQPTGLRVGDQVRIVPNHACVVANMLDHITLMRAEEVAGQETVAARGQVW | not soluble
MSPTGNYLNAITNRRTIYNLKPELPQGVGLDDVKRTVHVILKNTPTAFNSQVNRAVIIVGDTHKRIWDAVASAMPTAEAKKRPESCRDEAYGSVIFFTDEGPTEKLQRDFPALAAAFPTCAAHTTGAVQIQSWTALELLGLGANLQHYNDYVKSALPQDVPIAWTVQSQLVFGVPTALPEEKTFINNVINVYH | soluble
MFEFEQLPNEMQLEVLKRTEFRTIQSMKTVSKRVQHFIQLYQRYMLPIPIRQMFVTPEKISFTLANSNEINTINHDDMDKYLRGAKVDLLWLEMNGSEDEPIEFLQKVIQKTNFTRIDCLKLGSSKVECDVTKLENCMASLVCAELIVDWRFRVPEDFFNELHVEKLTRLTIGNQESRNFYHPLSGDHFRKFRGDWLEIGQNRLRSSDISTFLKNWKLGSISWIEMYNIVISFPIPELLILLKNESCQKTPTTWKVSRDLDEGKEELEIGFFKSTNFSKQPSLVIRQLKILEYLW | not soluble
MNEISVVLPAYNEEENIQKLVKRWQQLCKDLKYKYELSLNIFVIDDGSKDKTEVIGRELERKYDNFYLIKHDKNKGLGEAINTGIKYVMEKRSDSKYVCIMDCDNTQDPRYVFSMIEKMEKTDVVIASRYQKGSCVKGVPFFRLTASYGARFVYTIFLGVKNVRDYTCGYRLYRTSALKTAFKVFGESFIEESGFTCMVELLYKLNICGAVFKEVPFTLRYDFKGGVSKMKVLITAINSVKLTLRLKKIRKGVEPVLEDLEHHHHHH | not soluble
MKLNDPLVESFEFRGEIYPIDLSFNKVLDVFDVIDDDFLNEAEKCFLCLDILLDRTDLPFTYAVDLWVYIKTNFIDAERPEKPQLDIKGNPMPVVKEKEDNKKVIDLSLDAEFIYASFRQAYQINLLKEQNRLSWIEFKALLNALPDDTVMQRIIAIRQWEDDGEGSKKYRDNMRKLKAKYSLDEREEEDDGS | not soluble
MGSDKIHHHHHHGIGVNSSNRLGIDNFEFIRVLGKGSFGKVMLARVKETGDLYAVKVLKKDVILQDDDVECTMTEKRILSLARNHPFLTQLFCCFQTPDRLFFVMEFVNGGDLMFHIQKSRRFDEARARFYAAEIISALMFLHDKGIIYRDLKLDNVLLDHEGHCKLADFGMCKEGICNGVTTATFCGTPDYIAPEILQEMLYGPAVDWWAMGVLLYEMLCGHAPFEAENEDDLFEAILNDEVVYPTWLHEDATGILKSFMTKNPTMRLGSLTQGGEHAILRHPFFKEIDWAQLNHRQIEPPFRPRIKSREDVSNFDPDFIKEEPVLTPIDEGHLPMINQDEFRNFSYVSPELQP | not soluble
MSAATYRKLTSANLLDPVRCRLLISRNRCRVTGVKVPNPLKKVSNFFWRYRAPQAAPGHANPAYFPEADNFED | not soluble
GAMDAEGLALLLPPVTLAALVDSWLREDCPGLNYAALVSGAGPSQAALWAKSPGVLAGQPFFDAIFTQLNCQVSWFLPEGSKLVPVARVAEVRGPAHCLLLGERVALNTLARCSGIASAAAAAVEAARGAGWTGHVAGTRKTTPGFRLVEKYGLLVGGAASHRYDLGGLVMVKDNHVVAAGGVEKAVRAARQAADFALKVEVECSSLQEAVQAAEAGADLVLLDNFKPEELHPTATVLKAQFPSVAVEASGGITLDNLPQFCGPHIDVISMGMLTQAAPALDFSLKLFAKEVAPVPKIH | soluble
MADNVAGNDRLIWIDLEMTGLDTDRDSIIEIATIVTDAQLNVLAEGPELAIAHSLETLEAMDEWNRNQHRRSGLWQRVLDSQVTHAQAEAQTVAFLGEWIRAGASPMCGNSICQDRRFLHRQMSRLERYFHYRNLDVSTIKELARRWAPAVASGFAKSSAHTALSDVRDSIDELRHYRQFMGTLGGDNGGGVQN | soluble
MKSERILVVKTEDFLKEFGEFEGFMRVNFEDFLNFLDQYGFFRERDEAEYDETTKQVIPYVVIMDGDRVLITKRTTKQSEKRLHNLYSLGIGGHVREGDGATPREAFLKGLEREVNEEVDVSLRELEFLGLINSSTTEVSRVHLGALFLGRGKFFSVKEKDLFEWELIKLEELEKFSGVMEGWSKISAAVLLNLFLTQN | not soluble
SLRVSASMSLVVLTFLLTCFMVRPMTAVTSDPLDFHWPGSRILAVGDLHGDIGNTMLLLYGAGVVDEDGNWIAGDTLLIQTGDVVDRGPDGKRIYDYFASLSAQATEQGGKIIQLLGNHDVMNICGDFRYAHPSETIEFGGALERRRQFMDGGHYGNMLRSFPLSIKANGVIFSHAGIPSDFAVLGLSKLTQQLREELANDCKLHNSRFYNEAMGSSTGDLFVAGSQGPLWTRVYSMGQMTKICEELDKTLGILDSEKMVIGHTVQESGNIEVYCGGRLLLIDTGVSRYVADSPRMLEIRDGTFFEWRLDISKQGTDSEPNVRGSKRQLNIPPLKN | not soluble
WVPHELTENQKNRRFEVSSSLILRNHNEPFLDRIVTCDEKWILYDNRRRSAQWLDQEEAPKHFPKPILHPKKVMVTIWWSAAGLIHYSFLNPGETITSEKYAQEIDEMNQKLQRLQLALVNRKGPILLHDNARPHVAQPTLQKLNELGYEVLPHPPYSPDLLPTNYHVFKHLNNFLQGKRFHNQQDAENAFQEFVESQSTDFYATGINQLISRWQKCVDCNGSYFD | soluble
MTKPSVGINGFGRIGRLVLRAAVEKDSVNVVAVNDPFISIDYMVYLFQYDSTHGRFKGTVAHEGDYLLVAKEGKSQHKIKVYNSRDPAEIQWGASGADYVVESTGVFTTIEKANAHLKGGAKKVIISAPSADAPMFVVGVNHEKYDHANDHIISNASCTTNCLAPLAKVINDNFGIIEGLMTTVHAVTATQKTVDGPSGKLWRDGRGAGQNIIPASTGAAKAVGKVIPELNGKLTGMAFRVPTPDVSVVDLTARLEKPASLDDIKKVIKAAADGPMKGILAYTEDQVVSTDFVSDTNSSIFDAGASISLNPHFVKLVSWYDNEFGYSNRVVDLISYIATKA | soluble
MKVERGDVIRLHYTGRVKETGQIFDTTYEEVAKEAGIYNPKGIYGPVPIIVGAGHVISGLDKRLVGLEVGKKYTLEVPPEEGFGLRDPKLIKVFTMGQFRKQGIVPFPGLEVEVTTDNGRKMKGRVITVSGGRVRVDFNHPLAGKTLIYEVEIVEKIEDPIEKIKALIELRLPMIDRDKVIIEVGEKDVKVNFGEQDVDPKTLILGEILLESDIKFLGYEKVEFKPSVEELLRPKQEEPVEEEKKEEQEESEEAQSS | soluble
EHGPVTFVPDTPIESRARLSLPKQLVLRQSIVGAEVGVWTGETIPVRTCFGPLIGQQSHSMEVAEWTDKAVNHIWKIYHNGVLEFCIITTDENECNWMMFVRKARNREEQNLVAYPHDGKIFFCTSQDIPPENELLFYYSRDYAQQIGVPE | soluble
GMFVWHEYENAAEAAQSLADAVADALQGALDEKGGAVLAVSGGRSPIAFFNALSQKDLDWKNVGITLADERIVPTNHADSNTGLVREYLLKNKAAAAVWIPMVEDGKTETELHPDAVVDYALKHYKQPDVLILGMGNDGHTASIFPKAPQFQTAIDGSAGVALVHTTPVTAPHERISMTLDAIAHTGHVFLAIQGEEKKAVFDQAAQGENREYPISLVLNHQGVNCHVFYAE | soluble
MSVSSRGAASPAHRTAPTKWLFTKEEMKKTASIQEGMSREEELASRQMAAAFIQEMIDGLNNVKDPKMKIGHTGLCVAHTHMHRFYYLHSFKKYDYRDVGAACVFLAGKSQECPRKLSHVISVWRERKDRKQLTTETARNEAAQIIVLLESMILQTIAFDLNVHLPHIYVLDIMKKVDKKEHYRPLTSCAYYFATDVIAVTDWSLRYSAASMSIVIIHLMAAYANVRIERLFADFINEDSPWYAKFDETMTNEKLREMEVDFLVTYRNSCQFHHASKFNFREHRPMLENPDVRKLDRTRDARSHSPMVHHVPDSTVNVRPRAYVPRDELTVERLNKERGVEEERRKRERDRMAGKLDSSTSSEKRARIDPLANNFVSSSSSSNGKLAPPPIPPQLNFPPPPIVSSGYNHKNQINRKNHENNHTNSSVSPAFVPSARTFDVAPMLTPPTAPKLQSADNSDMDLEDGELE | not soluble
MGSDKIHHHHHHMTIYSPDTINFNGVNGDRYWFDEPFPYTGVGDIDERLSGFPVAVFLPHHRPRQETPLVIGLQGMCAPYGWNAFIVPTLTEMGIAVALFDPPLSGERSLVRTSTTLVQNEIKPLIDRGIPFDTALFLSIFRTTARDISKIREFCGDRYGLTDSRLALFGVSMGVLLSAYAFTANSLGDRLLGTIGHADLPSFAKSWGRPFLPDLAASPLGGLAESLLQRLQPDLAPLFQLLRLTKNLKYQDEYAWDCNPMNYIQQVDSHRRVRFLVGANDSIVKIKDARACAQKFPDGDCYVVPGMGHGTRQSGVSFVDHVRYFLATQLGDWCG | not soluble
